Patent US20250171562A1

Target: mixture of three Der p 2 specific recombinant human IgE clones H10, H12, P4E (human) (UniProt P01854)
Experiment: RBL-SX38 IgE displacement, FACS

Chain of mixture of three Der p 2 specific recombinant human IgE clones H10, H12, P4E (human) (P01854 other isoform, or with tags, fused parts or gaps): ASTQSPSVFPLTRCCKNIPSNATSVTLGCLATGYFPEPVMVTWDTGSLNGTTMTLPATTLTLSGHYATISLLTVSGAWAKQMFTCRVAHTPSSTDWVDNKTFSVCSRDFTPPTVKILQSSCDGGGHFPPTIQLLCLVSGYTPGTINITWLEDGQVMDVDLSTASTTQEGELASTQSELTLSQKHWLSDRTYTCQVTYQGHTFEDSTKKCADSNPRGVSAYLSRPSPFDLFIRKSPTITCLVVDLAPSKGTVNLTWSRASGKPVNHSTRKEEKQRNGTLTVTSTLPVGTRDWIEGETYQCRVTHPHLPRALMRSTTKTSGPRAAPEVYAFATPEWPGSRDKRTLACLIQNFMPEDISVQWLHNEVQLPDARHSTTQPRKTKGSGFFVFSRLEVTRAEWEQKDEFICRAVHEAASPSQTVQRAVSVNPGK

| Binder | EC50 [nM] | Max effect/effect 1 µM [%] |
| --- | --- | --- |
| NIgG4E3A1(RS) (Fc fusion) chain 1: DVQLQESGGGLVQAGGSLRLACAASGRTLSSYVVSWFRQAPGKERKFVAAITWSGLSTTYLDSVQGRFTISRDNTKDTVYLQMNSLKPQDTAIYYCAAGPNIPSILRTRESEYAYWGQGTQVTVSRSGPPCPPCPAPEFLGGPSVFLFPPKPKDTLMISRTPEVTCVVVDVSQEDPEVQFNWYVDGVEVHNAKTKPREEQFNSTYRVVSVLTVLHQDWLNGKEYKCKVSNKGLPSSIEKTISKAKGQPREPQVYTLPPCQEEMTKNQVSLWCLVKGFYPSDIAVEWESNGQPENNYKTTPPVLDSDGSFFLYSRLTVDKSRWQEGNVFSCSVMHEALHNHYTQKSLSLSLGK chain 2: EVQLLESGGGLVQPGGSLRLSCAASGFTFGNYDMAWVRQAPGKRPEWVSSIDTGGDITHYADSVKGRFTISRDNAKNTLYLQMNSLRPEDTAVYWCATDEEYALGPNEFDYYGQGTLVTVSSRSGPPCPPCPAPEFLGGPSVFLFPPKPKDTLMISRTPEVTCVVVDVSQEDPEVQFNWYVDGVEVHNAKTKPREEQFNSTYRVVSVLTVLHQDWLNGKEYKCKVSNKGLPSSIEKTISKAKGQPREPQVCTLPPSQEEMTKNQVSLSCAVKGFYPSDIAVEWESNGQPENNYKTTPPVLDSDGSFFLVSRLTVDKSRWQEGNVFSCSVMHEALHNHYTQKSLSLSLGK | 2.2 | 100 |
| NIgG4E3A1(G4S)2 (Fc fusion) chain 1: DVQLQESGGGLVQAGGSLRLACAASGRTLSSYVVSWFRQAPGKERKFVAAITWSGLSTTYLDSVQGRFTISRDNTKDTVYLQMNSLKPQDTAIYYCAAGPNIPSILRTRESEYAYWGQGTQVTVSGGGGSGGGGSGPPCPPCPAPEFLGGPSVFLFPPKPKDTLMISRTPEVTCVVVDVSQEDPEVQFNWYVDGVEVHNAKTKPREEQFNSTYRVVSVLTVLHQDWLNGKEYKCKVSNKGLPSSIEKTISKAKGQPREPQVYTLPPCQEEMTKNQVSLWCLVKGFYPSDIAVEWESNGQPENNYKTTPPVLDSDGSFFLYSRLTVDKSRWQEGNVFSCSVMHEALHNHYTQKSLSLSLGK chain 2: EVQLLESGGGLVQPGGSLRLSCAASGFTFGNYDMAWVRQAPGKRPEWVSSIDTGGDITHYADSVKGRFTISRDNAKNTLYLQMNSLRPEDTAVYWCATDEEYALGPNEFDYYGQGTLVTVSSGGGGSGGGGSGPPCPPCPAPEFLGGPSVFLFPPKPKDTLMISRTPEVTCVVVDVSQEDPEVQFNWYVDGVEVHNAKTKPREEQFNSTYRVVSVLTVLHQDWLNGKEYKCKVSNKGLPSSIEKTISKAKGQPREPQVCTLPPSQEEMTKNQVSLSCAVKGFYPSDIAVEWESNGQPENNYKTTPPVLDSDGSFFLVSRLTVDKSRWQEGNVFSCSVMHEALHNHYTQKSLSLSLGK | 2.1 | 99 |
| NIgG4E3A1(G4S)1 (Fc fusion) chain 1: DVQLQESGGGLVQAGGSLRLACAASGRTLSSYVVSWFRQAPGKERKFVAAITWSGLSTTYLDSVQGRFTISRDNTKDTVYLQMNSLKPQDTAIYYCAAGPNIPSILRTRESEYAYWGQGTQVTVSGGGGSGPPCPPCPAPEFLGGPSVFLFPPKPKDTLMISRTPEVTCVVVDVSQEDPEVQFNWYVDGVEVHNAKTKPREEQFNSTYRVVSVLTVLHQDWLNGKEYKCKVSNKGLPSSIEKTISKAKGQPREPQVYTLPPCQEEMTKNQVSLWCLVKGFYPSDIAVEWESNGQPENNYKTTPPVLDSDGSFFLYSRLTVDKSRWQEGNVFSCSVMHEALHNHYTQKSLSLSLGK chain 2: EVQLLESGGGLVQPGGSLRLSCAASGFTFGNYDMAWVRQAPGKRPEWVSSIDTGGDITHYADSVKGRFTISRDNAKNTLYLQMNSLRPEDTAVYWCATDEEYALGPNEFDYYGQGTLVTVSSGGGGSGPPCPPCPAPEFLGGPSVFLFPPKPKDTLMISRTPEVTCVVVDVSQEDPEVQFNWYVDGVEVHNAKTKPREEQFNSTYRVVSVLTVLHQDWLNGKEYKCKVSNKGLPSSIEKTISKAKGQPREPQVCTLPPSQEEMTKNQVSLSCAVKGFYPSDIAVEWESNGQPENNYKTTPPVLDSDGSFFLVSRLTVDKSRWQEGNVFSCSVMHEALHNHYTQKSLSLSLGK | 2 | 99 |

More lines, now with the values ahead:

| EC50 [nM] | Max effect/effect 1 µM [%] | Binder |
| --- | --- | --- |
| 162 | 73 | CIgG4E3A1(G4S)3 (Fc fusion) chain 1: GPPCPPCPAPEFLGGPSVFLFPPKPKDTLMISRTPEVTCVVVDVSQEDPEVQFNWYVDGVEVHNAKTKPREEQFNSTYRVVSVLTVLHQDWLNGKEYKCKVSNKGLPSSIEKTISKAKGQPREPQVYTLPPCQEEMTKNQVSLWCLVKGFYPSDIAVEWESNGQPENNYKTTPPVLDSDGSFFLYSRLTVDKSRWQEGNVFSCSVMHEALHNHYTQKSLSLSLGKGGGGSGGGGSGGGGSDVQLQESGGGLVQAGGSLRLACAASGRTLSSYVVSWFRQAPGKERKFVAAITWSGLSTTYLDSVQGRFTISRDNTKDTVYLQMNSLKPQDTAIYYCAAGPNIPSILRTRESEYAYWGQGTQVTVS chain 2: GPPCPPCPAPEFLGGPSVFLFPPKPKDTLMISRTPEVTCVVVDVSQEDPEVQFNWYVDGVEVHNAKTKPREEQFNSTYRVVSVLTVLHQDWLNGKEYKCKVSNKGLPSSIEKTISKAKGQPREPQVCTLPPSQEEMTKNQVSLSCAVKGFYPSDIAVEWESNGQPENNYKTTPPVLDSDGSFFLVSRLTVDKSRWQEGNVFSCSVMHEALHNHYTQKSLSLSLGKGGGGSGGGGSGGGGSEVQLLESGGGLVQPGGSLRLSCAASGFTFGNYDMAWVRQAPGKRPEWVSSIDTGGDITHYADSVKGRFTISRDNAKNTLYLQMNSLRPEDTAVYWCATDEEYALGPNEFDYYGQGTLVTVSS |
| 2.2 | 97 | NIgG4E3A1(G4S)3 (Fc fusion) chain 1: DVQLQESGGGLVQAGGSLRLACAASGRTLSSYVVSWFRQAPGKERKFVAAITWSGLSTTYLDSVQGRFTISRDNTKDTVYLQMNSLKPQDTAIYYCAAGPNIPSILRTRESEYAYWGQGTQVTVSGGGGSGGGGSGGGGSGPPCPPCPAPEFLGGPSVFLFPPKPKDTLMISRTPEVTCVVVDVSQEDPEVQFNWYVDGVEVHNAKTKPREEQFNSTYRVVSVLTVLHQDWLNGKEYKCKVSNKGLPSSIEKTISKAKGQPREPQVYTLPPCQEEMTKNQVSLWCLVKGFYPSDIAVEWESNGQPENNYKTTPPVLDSDGSFFLYSRLTVDKSRWQEGNVFSCSVMHEALHNHYTQKSLSLSLGK chain 2: EVQLLESGGGLVQPGGSLRLSCAASGFTFGNYDMAWVRQAPGKRPEWVSSIDTGGDITHYADSVKGRFTISRDNAKNTLYLQMNSLRPEDTAVYWCATDEEYALGPNEFDYYGQGTLVTVSSGGGGSGGGGSGGGGSGPPCPPCPAPEFLGGPSVFLFPPKPKDTLMISRTPEVTCVVVDVSQEDPEVQFNWYVDGVEVHNAKTKPREEQFNSTYRVVSVLTVLHQDWLNGKEYKCKVSNKGLPSSIEKTISKAKGQPREPQVCTLPPSQEEMTKNQVSLSCAVKGFYPSDIAVEWESNGQPENNYKTTPPVLDSDGSFFLVSRLTVDKSRWQEGNVFSCSVMHEALHNHYTQKSLSLSLGK |
| 172 | 94 | CIgG4E3A1(G4S)2 (Fc fusion) chain 1: GPPCPPCPAPEFLGGPSVFLFPPKPKDTLMISRTPEVTCVVVDVSQEDPEVQFNWYVDGVEVHNAKTKPREEQFNSTYRVVSVLTVLHQDWLNGKEYKCKVSNKGLPSSIEKTISKAKGQPREPQVYTLPPCQEEMTKNQVSLWCLVKGFYPSDIAVEWESNGQPENNYKTTPPVLDSDGSFFLYSRLTVDKSRWQEGNVFSCSVMHEALHNHYTQKSLSLSLGKGGGGSGGGGSDVQLQESGGGLVQAGGSLRLACAASGRTLSSYVVSWFRQAPGKERKFVAAITWSGLSTTYLDSVQGRFTISRDNTKDTVYLQMNSLKPQDTAIYYCAAGPNIPSILRTRESEYAYWGQGTQVTVS chain 2: GPPCPPCPAPEFLGGPSVFLFPPKPKDTLMISRTPEVTCVVVDVSQEDPEVQFNWYVDGVEVHNAKTKPREEQFNSTYRVVSVLTVLHQDWLNGKEYKCKVSNKGLPSSIEKTISKAKGQPREPQVCTLPPSQEEMTKNQVSLSCAVKGFYPSDIAVEWESNGQPENNYKTTPPVLDSDGSFFLVSRLTVDKSRWQEGNVFSCSVMHEALHNHYTQKSLSLSLGKGGGGSGGGGSEVQLLESGGGLVQPGGSLRLSCAASGFTFGNYDMAWVRQAPGKRPEWVSSIDTGGDITHYADSVKGRFTISRDNAKNTLYLQMNSLRPEDTAVYWCATDEEYALGPNEFDYYGQGTLVTVSS |
|  | 21 | CIgG4E3A1(RS) (Fc fusion) chain 1: GPPCPPCPAPEFLGGPSVFLFPPKPKDTLMISRTPEVTCVVVDVSQEDPEVQFNWYVDGVEVHNAKTKPREEQFNSTYRVVSVLTVLHQDWLNGKEYKCKVSNKGLPSSIEKTISKAKGQPREPQVYTLPPCQEEMTKNQVSLWCLVKGFYPSDIAVEWESNGQPENNYKTTPPVLDSDGSFFLYSRLTVDKSRWQEGNVFSCSVMHEALHNHYTQKSLSLSLGKRSDVQLQESGGGLVQAGGSLRLACAASGRTLSSYVVSWFRQAPGKERKFVAAITWSGLSTTYLDSVQGRFTISRDNTKDTVYLQMNSLKPQDTAIYYCAAGPNIPSILRTRESEYAYWGQGTQVTVS chain 2: GPPCPPCPAPEFLGGPSVFLFPPKPKDTLMISRTPEVTCVVVDVSQEDPEVQFNWYVDGVEVHNAKTKPREEQFNSTYRVVSVLTVLHQDWLNGKEYKCKVSNKGLPSSIEKTISKAKGQPREPQVCTLPPSQEEMTKNQVSLSCAVKGFYPSDIAVEWESNGQPENNYKTTPPVLDSDGSFFLVSRLTVDKSRWQEGNVFSCSVMHEALHNHYTQKSLSLSLGKRSEVQLLESGGGLVQPGGSLRLSCAASGFTFGNYDMAWVRQAPGKRPEWVSSIDTGGDITHYADSVKGRFTISRDNAKNTLYLQMNSLRPEDTAVYWCATDEEYALGPNEFDYYGQGTLVTVSS |
| 277 | 76 | CIgG4E3A1(G4S)1 (Fc fusion) chain 1: GPPCPPCPAPEFLGGPSVFLFPPKPKDTLMISRTPEVTCVVVDVSQEDPEVQFNWYVDGVEVHNAKTKPREEQFNSTYRVVSVLTVLHQDWLNGKEYKCKVSNKGLPSSIEKTISKAKGQPREPQVYTLPPCQEEMTKNQVSLWCLVKGFYPSDIAVEWESNGQPENNYKTTPPVLDSDGSFFLYSRLTVDKSRWQEGNVFSCSVMHEALHNHYTQKSLSLSLGKGGGGSDVQLQESGGGLVQAGGSLRLACAASGRTLSSYVVSWFRQAPGKERKFVAAITWSGLSTTYLDSVQGRFTISRDNTKDTVYLQMNSLKPQDTAIYYCAAGPNIPSILRTRESEYAYWGQGTQVTVS chain 2: GPPCPPCPAPEFLGGPSVFLFPPKPKDTLMISRTPEVTCVVVDVSQEDPEVQFNWYVDGVEVHNAKTKPREEQFNSTYRVVSVLTVLHQDWLNGKEYKCKVSNKGLPSSIEKTISKAKGQPREPQVCTLPPSQEEMTKNQVSLSCAVKGFYPSDIAVEWESNGQPENNYKTTPPVLDSDGSFFLVSRLTVDKSRWQEGNVFSCSVMHEALHNHYTQKSLSLSLGKGGGGSEVQLLESGGGLVQPGGSLRLSCAASGFTFGNYDMAWVRQAPGKRPEWVSSIDTGGDITHYADSVKGRFTISRDNAKNTLYLQMNSLRPEDTAVYWCATDEEYALGPNEFDYYGQGTLVTVSS |
